Measurements published in patent publication US20150344540A1, “NOVEL GLP-1 RECEPTOR AGONISTS WITH CHOLESTEROL EFFLUX ACTIVITY” (NOVO NORDISK A/S, priority 2012, published 2015).
Where no end group is shown, it is not given here. [ ]: non-standard residue; d: D form. Aib = CC(C)(N)C(=O)O

Target: human GLP-1 receptor (human, UniProt P43220)
Assay: cell-based or functional assay

Binder	CRE luciferase EC50, 0% HSA	CRE luciferase EC50, 1% HSA
H[Aib]EGTFTSDVSSYLEGEAVKEFIAWLLEK[Aib]KEWL-NH2 (N-terminus assumed; SMILES CC[C@H](C)[C@H](NC(=O)[C@H](Cc1ccccc1)NC(=O)[C@H](CCC(=O)O)NC(=O)[C@H](CCCCN)NC(=O)[C@@H](NC(=O)[C@H](C)NC(=O)[C@H](CCC(=O)O)NC(=O)CNC(=O)[C@H](CCC(=O)O)NC(=O)[C@H](CC(C)C)NC(=O)[C@H](Cc1ccc(O)cc1)NC(=O)[C@H](CO)NC(=O)[C@H](CO)NC(=O)[C@@H](NC(=O)[C@H](CC(=O)O)NC(=O)[C@H](CO)NC(=O)[C@@H](NC(=O)[C@H](Cc1ccccc1)NC(=O)[C@@H](NC(=O)CNC(=O)[C@H](CCC(=O)O)NC(=O)C(C)(C)NC(=O)[C@@H](N)Cc1c[nH]cn1)[C@@H](C)O)[C@@H](C)O)C(C)C)C(C)C)C(=O)N[C@@H](C)C(=O)N[C@@H](Cc1c[nH]c2ccccc12)C(=O)N[C@@H](CC(C)C)C(=O)N[C@@H](CC(C)C)C(=O)N[C@@H](CCC(=O)O)C(=O)N[C@@H](CCCCN)C(=O)NC(C)(C)C(=O)N[C@@H](CCCCN)C(=O)N[C@@H](CCC(=O)O)C(=O)N[C@@H](Cc1c[nH]c2ccccc12)C(=O)N[C@@H](CC(C)C)C(N)=O) [[Aib8,Glu23,Val25,Leu33,Glu34,Lys35,Aib36,Lys37]-GLP-1-(7-37)-peptidyl-Glu-Trp-Leu amide]	659 pM	320 pM
H[Aib]EGTFTSDVSSYLEGKAVKEFIAWLVEK[Aib]KEFL-NH2 (N-terminus assumed; SMILES CC[C@H](C)[C@H](NC(=O)[C@H](Cc1ccccc1)NC(=O)[C@H](CCC(=O)O)NC(=O)[C@H](CCCCN)NC(=O)[C@@H](NC(=O)[C@H](C)NC(=O)[C@H](CCCCN)NC(=O)CNC(=O)[C@H](CCC(=O)O)NC(=O)[C@H](CC(C)C)NC(=O)[C@H](Cc1ccc(O)cc1)NC(=O)[C@H](CO)NC(=O)[C@H](CO)NC(=O)[C@@H](NC(=O)[C@H](CC(=O)O)NC(=O)[C@H](CO)NC(=O)[C@@H](NC(=O)[C@H](Cc1ccccc1)NC(=O)[C@@H](NC(=O)CNC(=O)[C@H](CCC(=O)O)NC(=O)C(C)(C)NC(=O)[C@@H](N)Cc1c[nH]cn1)[C@@H](C)O)[C@@H](C)O)C(C)C)C(C)C)C(=O)N[C@@H](C)C(=O)N[C@@H](Cc1c[nH]c2ccccc12)C(=O)N[C@@H](CC(C)C)C(=O)N[C@H](C(=O)N[C@@H](CCC(=O)O)C(=O)N[C@@H](CCCCN)C(=O)NC(C)(C)C(=O)N[C@@H](CCCCN)C(=O)N[C@@H](CCC(=O)O)C(=O)N[C@@H](Cc1ccccc1)C(=O)N[C@@H](CC(C)C)C(N)=O)C(C)C) [[Aib8,Lys23,Val25,Glu34,Lys35,Aib36,Lys37]-GLP-1-(7-37)-peptidyl-Glu-Phe-Leu amide]	311 pM	173 pM
H[Aib]EGTFTSDVSSYLEGEAVKEFIAWLVEKFKEFF-NH2 (N-terminus assumed; SMILES CC[C@H](C)[C@H](NC(=O)[C@H](Cc1ccccc1)NC(=O)[C@H](CCC(=O)O)NC(=O)[C@H](CCCCN)NC(=O)[C@@H](NC(=O)[C@H](C)NC(=O)[C@H](CCC(=O)O)NC(=O)CNC(=O)[C@H](CCC(=O)O)NC(=O)[C@H](CC(C)C)NC(=O)[C@H](Cc1ccc(O)cc1)NC(=O)[C@H](CO)NC(=O)[C@H](CO)NC(=O)[C@@H](NC(=O)[C@H](CC(=O)O)NC(=O)[C@H](CO)NC(=O)[C@@H](NC(=O)[C@H](Cc1ccccc1)NC(=O)[C@@H](NC(=O)CNC(=O)[C@H](CCC(=O)O)NC(=O)C(C)(C)NC(=O)[C@@H](N)Cc1c[nH]cn1)[C@@H](C)O)[C@@H](C)O)C(C)C)C(C)C)C(=O)N[C@@H](C)C(=O)N[C@@H](Cc1c[nH]c2ccccc12)C(=O)N[C@@H](CC(C)C)C(=O)N[C@H](C(=O)N[C@@H](CCC(=O)O)C(=O)N[C@@H](CCCCN)C(=O)N[C@@H](Cc1ccccc1)C(=O)N[C@@H](CCCCN)C(=O)N[C@@H](CCC(=O)O)C(=O)N[C@@H](Cc1ccccc1)C(=O)N[C@@H](Cc1ccccc1)C(N)=O)C(C)C) [[Aib8,Glu23,Val25,Glu34,Lys35,Phe36,Lys37]-GLP-1-(7-37)-peptidyl-Glu-Phe-Phe amide]	1220 pM	431 pM
HGEGTFTSDVSSYLEGEAVKEFIAWLVEKVKEFLG [[Gly8,Glu23,Val25,Glu34,Lys35,Val36,Lys37]-GLP-1-(7-37)-peptidyl-Glu-Phe-Leu-Gly]	464 pM	122 pM
H[Aib]EGTFTSDVSSYLEGEAVQEFIAWLVEQ[Aib]QEFL-NH2 (N-terminus assumed; SMILES CC[C@H](C)[C@H](NC(=O)[C@H](Cc1ccccc1)NC(=O)[C@H](CCC(=O)O)NC(=O)[C@H](CCC(N)=O)NC(=O)[C@@H](NC(=O)[C@H](C)NC(=O)[C@H](CCC(=O)O)NC(=O)CNC(=O)[C@H](CCC(=O)O)NC(=O)[C@H](CC(C)C)NC(=O)[C@H](Cc1ccc(O)cc1)NC(=O)[C@H](CO)NC(=O)[C@H](CO)NC(=O)[C@@H](NC(=O)[C@H](CC(=O)O)NC(=O)[C@H](CO)NC(=O)[C@@H](NC(=O)[C@H](Cc1ccccc1)NC(=O)[C@@H](NC(=O)CNC(=O)[C@H](CCC(=O)O)NC(=O)C(C)(C)NC(=O)[C@@H](N)Cc1c[nH]cn1)[C@@H](C)O)[C@@H](C)O)C(C)C)C(C)C)C(=O)N[C@@H](C)C(=O)N[C@@H](Cc1c[nH]c2ccccc12)C(=O)N[C@@H](CC(C)C)C(=O)N[C@H](C(=O)N[C@@H](CCC(=O)O)C(=O)N[C@@H](CCC(N)=O)C(=O)NC(C)(C)C(=O)N[C@@H](CCC(N)=O)C(=O)N[C@@H](CCC(=O)O)C(=O)N[C@@H](Cc1ccccc1)C(=O)N[C@@H](CC(C)C)C(N)=O)C(C)C) [[Aib8,Glu23,Val25,Gln26,Glu34,Gln35,Aib36,Gln37]-GLP-1-(7-37)-peptidyl-Glu-Phe-Leu amide]	156 pM	40 pM
H[Aib]EGTFTSDVSSYLEGEAVKEFIAWLVEK[Aib]LSFL-NH2 (N-terminus assumed; SMILES CC[C@H](C)[C@H](NC(=O)[C@H](Cc1ccccc1)NC(=O)[C@H](CCC(=O)O)NC(=O)[C@H](CCCCN)NC(=O)[C@@H](NC(=O)[C@H](C)NC(=O)[C@H](CCC(=O)O)NC(=O)CNC(=O)[C@H](CCC(=O)O)NC(=O)[C@H](CC(C)C)NC(=O)[C@H](Cc1ccc(O)cc1)NC(=O)[C@H](CO)NC(=O)[C@H](CO)NC(=O)[C@@H](NC(=O)[C@H](CC(=O)O)NC(=O)[C@H](CO)NC(=O)[C@@H](NC(=O)[C@H](Cc1ccccc1)NC(=O)[C@@H](NC(=O)CNC(=O)[C@H](CCC(=O)O)NC(=O)C(C)(C)NC(=O)[C@@H](N)Cc1c[nH]cn1)[C@@H](C)O)[C@@H](C)O)C(C)C)C(C)C)C(=O)N[C@@H](C)C(=O)N[C@@H](Cc1c[nH]c2ccccc12)C(=O)N[C@@H](CC(C)C)C(=O)N[C@H](C(=O)N[C@@H](CCC(=O)O)C(=O)N[C@@H](CCCCN)C(=O)NC(C)(C)C(=O)N[C@@H](CC(C)C)C(=O)N[C@@H](CO)C(=O)N[C@@H](Cc1ccccc1)C(=O)N[C@@H](CC(C)C)C(N)=O)C(C)C) [[Aib8,Glu23,Val25,Glu34,Lys35,Aib36,Leu37]-GLP-1-(7-37)-peptidyl-Ser-Phe-Leu amide]	872 pM	368 pM
H[Aib]EGTFTSDVSSYLEGEAVKEFIQHLVEKLKEFL-NH2 (N-terminus assumed; SMILES CC[C@H](C)[C@H](NC(=O)[C@H](Cc1ccccc1)NC(=O)[C@H](CCC(=O)O)NC(=O)[C@H](CCCCN)NC(=O)[C@@H](NC(=O)[C@H](C)NC(=O)[C@H](CCC(=O)O)NC(=O)CNC(=O)[C@H](CCC(=O)O)NC(=O)[C@H](CC(C)C)NC(=O)[C@H](Cc1ccc(O)cc1)NC(=O)[C@H](CO)NC(=O)[C@H](CO)NC(=O)[C@@H](NC(=O)[C@H](CC(=O)O)NC(=O)[C@H](CO)NC(=O)[C@@H](NC(=O)[C@H](Cc1ccccc1)NC(=O)[C@@H](NC(=O)CNC(=O)[C@H](CCC(=O)O)NC(=O)C(C)(C)NC(=O)[C@@H](N)Cc1c[nH]cn1)[C@@H](C)O)[C@@H](C)O)C(C)C)C(C)C)C(=O)N[C@@H](CCC(N)=O)C(=O)N[C@@H](Cc1c[nH]cn1)C(=O)N[C@@H](CC(C)C)C(=O)N[C@H](C(=O)N[C@@H](CCC(=O)O)C(=O)N[C@@H](CCCCN)C(=O)N[C@@H](CC(C)C)C(=O)N[C@@H](CCCCN)C(=O)N[C@@H](CCC(=O)O)C(=O)N[C@@H](Cc1ccccc1)C(=O)N[C@@H](CC(C)C)C(N)=O)C(C)C) [[Aib8,Glu23,Val25,Gln30,His31,Glu34,Lys35,Leu36,Lys37]-GLP-1-(7-37)-peptidyl-Glu-Phe-Leu amide]	77 pM	25 pM
H[Aib]EGTFTSDVSSYLEGEAVREFIAWLVERVREFLK-NH2 (N-terminus assumed; SMILES CC[C@H](C)[C@H](NC(=O)[C@H](Cc1ccccc1)NC(=O)[C@H](CCC(=O)O)NC(=O)[C@H](CCCNC(=N)N)NC(=O)[C@@H](NC(=O)[C@H](C)NC(=O)[C@H](CCC(=O)O)NC(=O)CNC(=O)[C@H](CCC(=O)O)NC(=O)[C@H](CC(C)C)NC(=O)[C@H](Cc1ccc(O)cc1)NC(=O)[C@H](CO)NC(=O)[C@H](CO)NC(=O)[C@@H](NC(=O)[C@H](CC(=O)O)NC(=O)[C@H](CO)NC(=O)[C@@H](NC(=O)[C@H](Cc1ccccc1)NC(=O)[C@@H](NC(=O)CNC(=O)[C@H](CCC(=O)O)NC(=O)C(C)(C)NC(=O)[C@@H](N)Cc1c[nH]cn1)[C@@H](C)O)[C@@H](C)O)C(C)C)C(C)C)C(=O)N[C@@H](C)C(=O)N[C@@H](Cc1c[nH]c2ccccc12)C(=O)N[C@@H](CC(C)C)C(=O)N[C@H](C(=O)N[C@@H](CCC(=O)O)C(=O)N[C@@H](CCCNC(=N)N)C(=O)N[C@H](C(=O)N[C@@H](CCCNC(=N)N)C(=O)N[C@@H](CCC(=O)O)C(=O)N[C@@H](Cc1ccccc1)C(=O)N[C@@H](CC(C)C)C(=O)N[C@@H](CCCCN)C(N)=O)C(C)C)C(C)C) [[Aib8,Glu23,Val25,Arg26,Glu34,Arg35,Val36,Arg37]-GLP-1-(7-37)-peptidyl-Glu-Phe-Leu-Lys amide]	433 pM	118 pM
H[Aib]EGTFTSDVSSYLEGEAVQEFIAWLVEAVAEFL-NH2 (N-terminus assumed; SMILES CC[C@H](C)[C@H](NC(=O)[C@H](Cc1ccccc1)NC(=O)[C@H](CCC(=O)O)NC(=O)[C@H](CCC(N)=O)NC(=O)[C@@H](NC(=O)[C@H](C)NC(=O)[C@H](CCC(=O)O)NC(=O)CNC(=O)[C@H](CCC(=O)O)NC(=O)[C@H](CC(C)C)NC(=O)[C@H](Cc1ccc(O)cc1)NC(=O)[C@H](CO)NC(=O)[C@H](CO)NC(=O)[C@@H](NC(=O)[C@H](CC(=O)O)NC(=O)[C@H](CO)NC(=O)[C@@H](NC(=O)[C@H](Cc1ccccc1)NC(=O)[C@@H](NC(=O)CNC(=O)[C@H](CCC(=O)O)NC(=O)C(C)(C)NC(=O)[C@@H](N)Cc1c[nH]cn1)[C@@H](C)O)[C@@H](C)O)C(C)C)C(C)C)C(=O)N[C@@H](C)C(=O)N[C@@H](Cc1c[nH]c2ccccc12)C(=O)N[C@@H](CC(C)C)C(=O)N[C@H](C(=O)N[C@@H](CCC(=O)O)C(=O)N[C@@H](C)C(=O)N[C@H](C(=O)N[C@@H](C)C(=O)N[C@@H](CCC(=O)O)C(=O)N[C@@H](Cc1ccccc1)C(=O)N[C@@H](CC(C)C)C(N)=O)C(C)C)C(C)C) [[Aib8,Glu23,Val25,Gln26,Glu34,Ala35,Val36,Ala37]-GLP-1-(7-37)-peptidyl-Glu-Phe-Leu amide]	622 pM	273 pM
